± gives the uncertainty stated by the source.

This passage reports amyloid nucleation score results from the supplement of paper PMC12042874.

A short description of the series: amyloid nucleation score (Sup35N fusion, yeast selection) (log enrichment); library NNK2; higher = more nucleation; inactive = no reads after selection. The gist of the method:
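Nucleation score is defined as the DiMSum log enrichment of output over input reads, with centring on the mode score of non-aggregating sequences. A minimum of 100 input reads was required for each sequence. Reads came from Illumina sequencing of plasmid inserts from psi-negative yeast expressing Sup35N fused to peptides of 20 random codons, induced with 100 μM copper sulfate for 24 hours and grown 7 days at 30°C on medium lacking adenine and uracil.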

As for HTKMTIWNVVQC, the amyloid nucleation score was -0.517 ± 0.63.

Turning to VLWMVQMIRPRSS, the amyloid nucleation score worked out at 7.02 ± 0.074.

In turn, LINFSFSDTAVFYVREGWEH registered an amyloid nucleation score of 6.846 ± 0.039.

The substance SSGLH gave an amyloid nucleation score of 0.527 ± 0.8.

As for FIAYMYPMVIWIPMRFLINQ, the amyloid nucleation score result is “inactive”.

Regarding SWSWSMGGNFRMVWSL, the amyloid nucleation score turned out to be 5.33 ± 0.06.

Substance LDDVNMWFHIGNGRGGGELW registered an amyloid nucleation score of 0.092 ± 1.1.

In the case of SSIRKDNRGCAHGGLVVER, the amyloid nucleation score is 0.698 ± 0.44.

Take YHCPVSW: the amyloid nucleation score is -0.254 ± 0.32.

On to FQMYTISLRRLVNNKSYARV, for which the amyloid nucleation score stood at 0.319 ± 0.8.

YIISYFLKMGSQ displayed an amyloid nucleation score of 4.95 ± 0.092.

For the substance DERGMCSLWSRCEYV, the amyloid nucleation score was -0.287 ± 0.29.

For LLSMYRFFNTLKSC, the amyloid nucleation score is -0.087 ± 0.33.

The substance SSYNSGLRLLSFTCCV had an amyloid nucleation score of 9.355 ± 0.052.

As to ITWNIVGGHFS, the amyloid nucleation score is -0.412 ± 1.1.

Substance MWVDQMVFKRPGYCRSGMYL showed an amyloid nucleation score of 4.78 ± 0.049.

For the substance CLDPLAMSN, the amyloid nucleation score entry is “inactive”.

Substance CVMGPAT showed an amyloid nucleation score of 1.02 ± 0.3.

Turning to MYDFLVKGRGVCVNLGNSTW, the amyloid nucleation score is -1.21 ± 0.48.

As to RYWWRVRIYFVCCVSSLDWV, the amyloid nucleation score came out at 7.09 ± 0.077.

Turning to VYSANSWH, the amyloid nucleation score is -0.364 ± 0.3.

For the substance LSWYDLSVQWNLYNIVGRRV, the amyloid nucleation score came to 2.06 ± 0.078.

Substance NTCRSYNRNVIIRARPRPGL came in with an amyloid nucleation score of 5.14 ± 0.069.

The substance GELRIYRLGHCVCVSMSLPA registered an amyloid nucleation score of 1.27 ± 0.36.

Regarding MNEFCRTGCRTFRQRSSCCR, the amyloid nucleation score amounted to 0.868 ± 0.15.

As to AVFRLFASVPGFNRRPGLEQ, the amyloid nucleation score is 0.314 ± 0.25.

On to WPVGLFKSGAISAV, for which the amyloid nucleation score was -0.475 ± 0.55.

As for YFNRIYYTDIYNMVALVICF, the amyloid nucleation score worked out at 4.4 ± 0.12.

For KGWWGVIRDYREWFTGSRWG, the amyloid nucleation score stood at 0.594 ± 0.47.

In the case of REDGSPVGLLGGDHWVDFAQ, the amyloid nucleation score came out at 1.38 ± 0.19.

As to TLMYSQSAIDWTMSSPGRCR, the amyloid nucleation score turned out to be 1.49 ± 0.36.

MAYGGPFSVLSSWDDADNGY: the amyloid nucleation score was -0.05 ± 0.5.

Consider SSLEFYVFWYP, for which the amyloid nucleation score is -1.14 ± 1.

Consider HKVFISLLCWEKMQKGLTQ, for which the amyloid nucleation score is -0.295 ± 0.55.

For the substance PNDHNQLQGPMLSLPPVKQV, the amyloid nucleation score was -0.359 ± 0.41.

Substance TLLVKSMGGSLET came in with an amyloid nucleation score of 4.11 ± 0.044.

QKACWNPGQRLLVTDLHYQP: the amyloid nucleation score came out at 0.27 ± 0.64.

Consider AYYALCL, for which the amyloid nucleation score is -0.92 ± 1.1.

In the case of RRKVCYTSQVRRLVNQRNVS, the amyloid nucleation score was -1.11 ± 0.34.

As for SRCASKFVTWEAYYTVSVKR, the amyloid nucleation score is 0.25 ± 0.8.

As to HLMRLHY, the amyloid nucleation score was -1.78 ± 1.1.

As to EVILTLIRYNV, the amyloid nucleation score came out at 4.21 ± 0.1.

Substance SLSNVLINCVLVFCW had an amyloid nucleation score of 6.53 ± 0.076.

As for FYVLFGSF, the amyloid nucleation score is -2.07 ± 0.76.

KLQLVTLW had an amyloid nucleation score of 3.66 ± 0.072.

DISVRTMFVS: the amyloid nucleation score was -0.392 ± 0.48.

As to NNRVVFTGRFL, the amyloid nucleation score was -1.45 ± 0.47.

Turning to KSHHGWSTIRCNRWYIS, the amyloid nucleation score result is “inactive”.

Regarding SSMGIVGPYGWFSTSMVNIV, the amyloid nucleation score is 0.895 ± 0.28.

Take DLYPENFASMRFRVTTSLVF: the amyloid nucleation score entry is “inactive”.

Take MWLASSDNYHNMALVCFCVL: the amyloid nucleation score entry is “inactive”.

Take ARLVYQLATRTCCFSQ: the amyloid nucleation score was -0.032 ± 1.1.

CMQTSDEPLRHGP: the amyloid nucleation score is -0.06 ± 0.79.

In turn, RMRLPPFPIDWSDAYLFWHS had an amyloid nucleation score of 1.28 ± 0.38.

In the case of GDKLIEGRASGKGNWILERG, the amyloid nucleation score was 1.19 ± 0.34.

Take LPMNQGLHYKWLFFAISGGL: the amyloid nucleation score result is “inactive”.

For the substance ASAAYWASVHICPNLSKRKL, the amyloid nucleation score was 0.328 ± 0.65.

LCKFFDTVVSMLGSVCSGNQ returned an amyloid nucleation score of 3.22 ± 0.1.

Turning to YTANLWYQAWMYSYCENPPT, the amyloid nucleation score entry was “inactive”.

PAVSYFFITFYVIVRFRLAE: the amyloid nucleation score stood at 2.86 ± 0.18.

With IMYVMGVVFNTMWVSA, the amyloid nucleation score was -1.11 ± 0.62.

Turning to SVKHGMLCYTLLDNMRCTVE, the amyloid nucleation score is -0.087 ± 0.26.

Turning to LGYFFGSTFSRAVLFVRLRR, the amyloid nucleation score is -0.097 ± 0.52.

In the case of SSYGFINYMTS, the amyloid nucleation score entry is “inactive”.

As for FPIFKHDWLFYWCTPSIKGR, the amyloid nucleation score is -1.06 ± 0.31.

The substance HCRKQIMMGDFKIQGNRGVG gave an amyloid nucleation score of 0.448 ± 0.66.

As for SFLWLSMFVESAQVVNLQLY, the amyloid nucleation score stood at 5.485 ± 0.038.

As for PHDGMHINT, the amyloid nucleation score stood at 1.53 ± 0.31.

SASDTRGCCQHIPVSLGILT returned an amyloid nucleation score of 0.119 ± 0.74.

Turning to YTVYFSVGVVVE, the amyloid nucleation score was -1.42 ± 0.49.

As for PIYLIC, the amyloid nucleation score is -0.686 ± 0.28.

In turn, ALERWS had an amyloid nucleation score of 0.024 ± 0.74.

Consider VIKGIEGVHGEKHVVYKVIC, for which the amyloid nucleation score stood at 4.19 ± 0.065.

In the case of RSFLLVLAELCFT, the amyloid nucleation score stood at 4.22 ± 0.12.

The substance NGSRI gave an amyloid nucleation score of 0.018 ± 0.31.

Consider VLVIVVTLRKWMTLNRRGVP, for which the amyloid nucleation score came to 0.155 ± 0.53.

With QRVFDLKSGFGLNRDILVCL, the amyloid nucleation score result was “inactive”.

Substance RVTFNFRGMYKLIIMGGVPP had an amyloid nucleation score of 6.49 ± 0.085.

ARYAVDTSITNECSLALYTS yielded an amyloid nucleation score of 1.23 ± 0.24.

The substance ASLGPRFTDRTVQSHVNTRC showed an amyloid nucleation score of 0.147 ± 0.41.

As to WKVCLVYDKTFWHVEVEGES, the amyloid nucleation score came out at 0.042 ± 0.8.

Consider NVSVGVPLQRTILLDLCTGT, for which the amyloid nucleation score entry is “inactive”.

Turning to CSFSIAFWKS, the amyloid nucleation score was 0.714 ± 0.3.

As for TIKTALMYIMRYSFRSYRDF, the amyloid nucleation score was -1.02 ± 0.61.

As for DVVFFVSYW, the amyloid nucleation score stood at 3.86 ± 0.098.

Turning to LNWIIVCLNN, the amyloid nucleation score is 4.98 ± 0.058.

With DRACPYLWVPLRLRGLDTII, the amyloid nucleation score is -1.32 ± 0.44.

As to YSEQNKWSRFVTDGGNLV, the amyloid nucleation score is -0.802 ± 0.61.

YDQSICLVRNVIAIYDMGSV showed an amyloid nucleation score of 6.81 ± 0.084.

As to RFNYEP, the amyloid nucleation score came to 0.262 ± 0.46.

In turn, GHVTYLVTAPHV yielded an amyloid nucleation score of 2.89 ± 0.14.

Consider GVVHKDELRGLKVRESSEMG, for which the amyloid nucleation score came to 0.271 ± 0.48.

In turn, CRCTSIRGLKCIRW gave an amyloid nucleation score of 0.767 ± 0.15.

Regarding EFMYGKTARGWFLALTARIF, the amyloid nucleation score entry is “inactive”.

Turning to WAVSATWWNFLSVYRKLSDL, the amyloid nucleation score is -0.095 ± 1.1.

In the case of FVFTLIWGHSSKLSESVSFL, the amyloid nucleation score result is “inactive”.

For the substance TLFLSNFRFRCRFPDHALIS, the amyloid nucleation score is -1.3 ± 0.48.

With CCLTPYAIICLLARLNHTKV, the amyloid nucleation score was -0.273 ± 0.61.

Take AVSTMGIVSIVF: the amyloid nucleation score entry was “inactive”.

Consider EQHIDSAMENFSDHDIVMLG, for which the amyloid nucleation score amounted to 4.76 ± 0.064.

Substance FYCYNFFWFL registered an amyloid nucleation score of 6.085 ± 0.033.

With GSQYRVWISS, the amyloid nucleation score was -0.214 ± 0.55.

Substance IMSSVELWENHYCGDVCMIV gave an amyloid nucleation score of 7.908 ± 0.049.

With KFSGRYWTGIEGVRISVCLH, the amyloid nucleation score is -0.778 ± 0.56.

In the case of NFNCAPFLVLYQQVGQAFSL, the amyloid nucleation score came to 6.578 ± 0.06.

For the substance QGYLLFN, the amyloid nucleation score is 0.467 ± 0.19.

For GSLMRTFHILSIAHSTSWCM, the amyloid nucleation score worked out at 0.381 ± 0.19.

In the case of RVMMSRISYSLSCVSADKVR, the amyloid nucleation score was determined as 0.288 ± 0.24.

For the substance YRRSPFETSGLQSCYCGSIG, the amyloid nucleation score was -0.003 ± 1.1.

In the case of FLRNWGTAWLVGFNSAKFIC, the amyloid nucleation score is -0.955 ± 0.63.

As for GWQWRWLHYRSVRINEEMVS, the amyloid nucleation score stood at 0.342 ± 0.34.

Regarding DLDRPYRDIFGTT, the amyloid nucleation score result was “inactive”.

In the case of SIRRCPVKFINKRLVVYLKV, the amyloid nucleation score is -0.88 ± 0.55.

For YHLLGALYNDAWVIWETTVL, the amyloid nucleation score was -0.116 ± 0.76.

As to FKDRYRTGFSDVRNQVAHSV, the amyloid nucleation score entry is “inactive”.

Turning to VGTAKYYFKGCLGTPRSNNL, the amyloid nucleation score entry is “inactive”.

Turning to SYGVLGDLASGTSRTID, the amyloid nucleation score was -1.25 ± 0.64.

LSSHPLGLGHTMGHRKF had an amyloid nucleation score of 0.985 ± 0.48.

For the substance LDYLDSVSINGIVQFKQMVW, the amyloid nucleation score was -0.285 ± 0.26.

Regarding EFRGWNI, the amyloid nucleation score is -0.587 ± 0.79.

Turning to GIVRGYMLSHLFV, the amyloid nucleation score is 0.262 ± 0.25.

With ALGVGVDFVKVWRNRGLAGG, the amyloid nucleation score came to 0.459 ± 0.51.

As for RAANLSLHSNGDTGGESVSD, the amyloid nucleation score result is “inactive”.

For the substance YRSIC, the amyloid nucleation score is -1.63 ± 0.75.

As for GYLYN, the amyloid nucleation score is -1.32 ± 1.1.

Take WFAWYCSSRYRHRR: the amyloid nucleation score stood at 3.57 ± 0.087.

As for IRVSLFYPSG, the amyloid nucleation score was determined as 3.89 ± 0.051.

Take GSRVWFEIINL: the amyloid nucleation score came to 6.013 ± 0.026.

Turning to WGITGLVCV, the amyloid nucleation score was -0.674 ± 0.76.

Regarding NNFWSNGG, the amyloid nucleation score was -0.285 ± 0.48.

RSGLLDMS: the amyloid nucleation score is -0.129 ± 1.1.

For the substance VYYLCVWF, the amyloid nucleation score is -1.18 ± 0.41.

ITLASDFACLFGVIDYSWIV: the amyloid nucleation score amounted to 0.143 ± 0.49.

As for VLLSGLY, the amyloid nucleation score entry is “inactive”.

In the case of YAFQGHGNFETGSYPEVLAA, the amyloid nucleation score is 0.098 ± 0.49.

Consider LQTAIVGSPRLVTFRIYIER, for which the amyloid nucleation score came out at 7.197 ± 0.065.

With LNSHSITMLLNSVCGCQSWT, the amyloid nucleation score came out at 9.201 ± 0.062.

For GRYILFFSRSEFDFKIVQSV, the amyloid nucleation score stood at 2.23 ± 0.21.

For the substance AEANLNFGLMDGAMSVKRAE, the amyloid nucleation score is -0.329 ± 0.55.

As to RCLTELTNETNYVGAG, the amyloid nucleation score was 0.405 ± 0.3.

For the substance GGDSECGYNGVFVGYAVFWC, the amyloid nucleation score stood at 0.128 ± 0.29.
